Assay results published in patent US20140056903A1 (Regeneron, published 2014).

Key:
[1] = target: T1, human GFRα3 on HEK293/hGFRα3/hRET/SRE-luc cells (human, UniProt O60609 32-382); assay: cell-based or functional assay
T1 sequence: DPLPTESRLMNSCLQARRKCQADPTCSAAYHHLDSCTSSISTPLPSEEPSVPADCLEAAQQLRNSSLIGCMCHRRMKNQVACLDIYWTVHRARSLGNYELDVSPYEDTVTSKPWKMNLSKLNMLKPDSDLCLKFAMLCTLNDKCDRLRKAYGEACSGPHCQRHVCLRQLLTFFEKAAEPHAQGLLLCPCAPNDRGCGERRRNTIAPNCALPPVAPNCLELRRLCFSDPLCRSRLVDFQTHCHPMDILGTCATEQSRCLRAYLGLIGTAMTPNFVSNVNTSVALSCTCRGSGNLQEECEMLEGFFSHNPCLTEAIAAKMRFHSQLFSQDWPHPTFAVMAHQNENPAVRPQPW

[2] = target: T2, human GFRα3 expressed with a C-terminal myc-myc-hexahistidine tag (human, UniProt O60609 32-374, biotinylated (sites not given) in ELISA format 2 and in the Octet cross-competition; not in SPR); assay: SPR, Ab captured, 37C
T2 construct: also called hGFRα3-mmh; hGFRα3-mmH
Protocol: (§1) Antibodies were tested for binding to human GFRα3 expressed with either a C-terminal myc-myc-hexahistidine tag (hGFRα3-mmh; SEQ ID: 370, a C-terminal hFc tag (hGFRα3-hFc; SEQ ID:371), or a C-terminal mFc tag (hGFRα3-mFc; SEQ ID:372), as well as monkey GFRα3 expressed with a C-terminal myc-myc-hexahistidine tag (MfGFRα3-mmh; SEQ ID:373). Anti-GFRα3 antibodies were captured on either a goat anti-mouse IgG polyclonal antibody (GE Healthcare, #BR-1008-38) or a mouse anti-human IgG monoclonal antibody (GE Healthcare, #BR-1008-39) surface created through direct amine coupling to a Biacore CM5 sensor chip. Kinetic experiments were carried out using HBS-EP (10 mM HEPES, 150 mM NaCl, 3 mM EDTA, 0.05% Surfactant P20, at pH 7.4) or PBS buffer containing 0.05% v/v surfactant P20 as both the running buffer and the sample buffer. Binding to human GFRα3-mmh or monkey GFRα3-mmh was evaluated by injecting several concentrations ranging from 200 to 7.4 nM (3-fold dilutions) across the captured antibody surface. Binding to human GFRα3-mFc or human GFRα3-hFc was evaluated by injecting several concentrations ranging from 100 to 3.7 nM (3-fold dilutions) across the captured antibody surface. Antibody-antigen association was monitored for up to 4 minutes, while dissociation in buffer was monitored for up to 20 minutes. Kinetic association (kₐ) and dissociation (kd) rate constants were determined by processing and fitting the data to a 1:1 binding model using Scrubber 2.0c curve fitting software. Binding dissociation equilibrium constants (KD) and dissociative half-lives (t_{1/2}) were calculated from the kinetic rate constants as: KD (M)=kd/kₐ and t_{1/2} (min)=[ln 2/(60*kd)].

[3] = target: T3, monkey GFRα3 expressed with a C-terminal myc-myc-hexahistidine tag (monkey (Mf), UniProt O60609 32-374 (human entry), limits assumed); assay: SPR, Ab captured, 37C
T3 construct: also called MfGFRα3-mmh; MfGFRα3-mmH
T3 chain: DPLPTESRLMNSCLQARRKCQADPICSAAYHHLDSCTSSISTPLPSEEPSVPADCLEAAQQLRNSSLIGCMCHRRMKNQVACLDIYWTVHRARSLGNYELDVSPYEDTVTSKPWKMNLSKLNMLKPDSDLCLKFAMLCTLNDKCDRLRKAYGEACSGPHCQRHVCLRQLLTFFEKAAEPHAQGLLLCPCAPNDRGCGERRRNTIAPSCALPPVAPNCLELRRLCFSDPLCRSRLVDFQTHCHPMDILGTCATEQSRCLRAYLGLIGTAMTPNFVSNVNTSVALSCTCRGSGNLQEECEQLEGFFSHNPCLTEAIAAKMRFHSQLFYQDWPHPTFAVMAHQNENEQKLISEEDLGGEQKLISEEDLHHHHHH
Protocol: as §1

[4] = target: T4, human GFRα3 expressed with a C-terminal hFc tag (human); assay: SPR, Ab captured, 37C
T4 construct: also called hGFRα3-hFc
Protocol: as §1

[5] = target: T2, human GFRα3 expressed with a C-terminal …; assay: SPR, Ab captured, 25C
Protocol: as §1

[6] = target: T3, monkey GFRα3 expressed with a …; assay: SPR, Ab captured, 25C
Protocol: as §1

[7] = target: T4, human GFRα3 expressed with a C-terminal …; assay: SPR, Ab captured, 25C
Protocol: as §1

B1: H4H2210N (antibody, human IgG4, V domains shown)
VH: EVQLLESGGGLVQPGGSLRVSCAASGFTFSTSAMSWVRQAPGKGLEWVSGISGIGGGSTYYADSVKGRFTISRDNSKNTLYLQMNSLRAEDTAVYFCAKFYKWNSYIFDLWGQGTMVTVSS
VL: EIVLTQSPDTLSLSPGERATLSCRASQSVSSSYFAWYQQKPGQAPRLLMYSASSRATGIPDRFSGSGSGTDFSLTISRLEPEDFAVYYCQQYGRSLTFGGGTKVEIK
With B1 the “IC50 (SRE-luc, HEK293/hGFRα3/hRET cells, 100 pM hARTEMIN-mmH)” value [1] was 2.9 nM.

B2: H2aM2210N (antibody, mouse IgG2, V domains shown)
VH: EVQLLESGGGLVQPGGSLRVSCAASGFTFSTSAMSWVRQAPGKGLEWVSGISGIGGGSTYYADSVKGRFTISRDNSKNTLYLQMNSLRAEDTAVYFCAKFYKWNSYIFDLWGQGTMVTVSS
VL: EIVLTQSPDTLSLSPGERATLSCRASQSVSSSYFAWYQQKPGQAPRLLMYSASSRATGIPDRFSGSGSGTDFSLTISRLEPEDFAVYYCQQYGRSLTFGGGTKVEIK
notes: chimeric, mouse IgG2 Fc (H2M/H2aM); also called H2M2210N
B2 showed a Kd [2] of 15.8 nM, a koff [2] of 0.00335 s⁻¹ and a kon [2] of 212000 M⁻¹ s⁻¹. For the same binder, the t1/2 [2] was 3 min, the Kd [3] was 76.4 nM and the koff [3] was 0.00618 s⁻¹. It also gave a kon [3] of 80900 M⁻¹ s⁻¹, a t1/2 [3] of 2 min and a Kd [4] of 0.242 nM. For the same binder, the koff [4] was 7.66e-05 s⁻¹, the kon [4] was 316000 M⁻¹ s⁻¹ and the t1/2 [4] was 151 min. For the same binder, the Kd [5] was 12.8 nM, the koff [5] was 0.000863 s⁻¹ and the kon [5] was 67300 M⁻¹ s⁻¹. The t1/2 [5] was 13 min, the Kd [6] was 28.9 nM and the koff [6] was 0.0012 s⁻¹. For the same binder, the kon [6] was 41600 M⁻¹ s⁻¹, the t1/2 [6] was 10 min and the Kd [7] was 0.22 nM. For the same binder, the koff [7] was 3.69e-05 s⁻¹, the kon [7] was 168000 M⁻¹ s⁻¹ and the t1/2 [7] was 5.22 h.

B3: H1M2236N (antibody, V domains shown)
VH: EVQLLESGGNLVQPGGSLRLSCAASGFTFSSYAMTWVRQAPGKGLEWVSTISGSGTSTYYADSVKGRFTISRDNSRDTVFLQMNSLRAEDTAVYYCSKPSALRFLHWLCMDVWGQGTLVTVSS
VL: DIQMTQSPSSLSAFVGDRVTITCRASQDIRNYLDWFQQKPGKAPKSLIYAASNLQSGVPSRFGGSGSGTDFTLTINSLQPEDFVTYYCQQYNSYPPTFGGGTKVEIK
notes: chimeric, human variable and mouse constant domains (H1M)
For B3, the Kd [2] was 0.532 nM, the koff [2] was 0.00055 s⁻¹ and the kon [2] was 1.03e+06 M⁻¹ s⁻¹. For the same binder, the t1/2 [2] was 21 min, the Kd [3] was 2.58 nM and the koff [3] was 0.00112 s⁻¹. The kon [3] was 434000 M⁻¹ s⁻¹, the t1/2 [3] was 10 min and the Kd [4] was 0.061 nM. For the same binder, the koff [4] was 9.65e-05 s⁻¹, the kon [4] was 1.58e+06 M⁻¹ s⁻¹ and the t1/2 [4] was 120 min. The Kd [5] was 0.275 nM, the koff [5] was 0.000208 s⁻¹ and the kon [5] was 760000 M⁻¹ s⁻¹. It also gave a t1/2 [5] of 56 min, a Kd [6] of 0.97 nM and a koff [6] of 0.000286 s⁻¹. The kon [6] was 296000 M⁻¹ s⁻¹, the t1/2 [6] was 40 min and the Kd [7] was 0.0137 nM. The koff [7] was 1.76e-05 s⁻¹, the kon [7] was 1.28e+06 M⁻¹ s⁻¹ and the t1/2 [7] was 11 h.

B4: H1M2243N (antibody, V domains shown)
VH: QVQLVQSGAEVKKPGASVKVSCKASGYTFTSYGIIWVRQAPGQGLEWMGWISGYNGNTNYTQNLQGRVTMTTDTSTTTAYMELRSLRSDDTAVYYCARWGIATRPYYYYGMDVWGQGTTVTVSS
VL: DIQMTQSPSSLSASVGDRVTITCRASQDITNYLAWFQQKPGKAPKSLIYAASSLQSGVPSKFSGSGSGTDFTLTISSLQPEDFATYYCQQYNSYPPTFGPGTKVDIK
notes: as for B3
For B4, the Kd [2] was 4.35 nM, the koff [2] was 0.000595 s⁻¹ and the kon [2] was 137000 M⁻¹ s⁻¹. It also gave a t1/2 [2] of 19 min, a Kd [3] of 54.7 nM and a koff [3] of 0.00275 s⁻¹. For the same binder, the kon [3] was 50200 M⁻¹ s⁻¹, the t1/2 [3] was 4 min and the Kd [4] was 0.117 nM. It also gave a koff [4] of 2.18e-05 s⁻¹, a kon [4] of 186000 M⁻¹ s⁻¹ and a t1/2 [4] of 529 min. It also gave a Kd [5] of 2.04 nM, a koff [5] of 0.000261 s⁻¹ and a kon [5] of 128000 M⁻¹ s⁻¹. For the same binder, the t1/2 [5] was 44 min, the Kd [6] was 10.2 nM and the koff [6] was 0.000658 s⁻¹. For the same binder, the kon [6] was 64600 M⁻¹ s⁻¹, the t1/2 [6] was 18 min and the Kd [7] was ≤ 0.0075 nM. For the same binder, the koff [7] was ≤ 1e-06 s⁻¹, the kon [7] was 134000 M⁻¹ s⁻¹ and the t1/2 [7] was 192 h.

B5: H2aM2234N (antibody, mouse IgG2, V domains shown)
VH: EVQLLESGGGLVQSGGSLRLSCAASGFSFNNYAMSWVRQAPGKGLEWVSFISGSGGSTYYADSVKGRFTISRDNSKNTLYLQMNSLRVEDTAVFYCAKDRYNYGTFFDYWGQGTLVTVSS
VL: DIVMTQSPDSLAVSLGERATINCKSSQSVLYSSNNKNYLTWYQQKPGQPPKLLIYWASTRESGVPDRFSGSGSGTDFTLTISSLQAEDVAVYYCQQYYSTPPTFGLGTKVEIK
notes: chimeric, mouse IgG2 Fc (H2M/H2aM); also called H2M2234N
B5 showed a Kd [2] of 3.43 nM, a koff [2] of 0.00272 s⁻¹ and a kon [2] of 793000 M⁻¹ s⁻¹. For the same binder, the t1/2 [2] was 4 min, the Kd [3] was 4.91 nM and the koff [3] was 0.00211 s⁻¹. It also gave a kon [3] of 429000 M⁻¹ s⁻¹, a t1/2 [3] of 5 min and a Kd [4] of 0.116 nM. The koff [4] was 0.000146 s⁻¹, the kon [4] was 1.26e+06 M⁻¹ s⁻¹ and the t1/2 [4] was 79 min. For the same binder, the Kd [5] was 1.08 nM, the koff [5] was 0.000711 s⁻¹ and the kon [5] was 657000 M⁻¹ s⁻¹. For the same binder, the t1/2 [5] was 16 min, the Kd [6] was 1.34 nM and the koff [6] was 0.000571 s⁻¹. For the same binder, the kon [6] was 427000 M⁻¹ s⁻¹, the t1/2 [6] was 20 min and the Kd [7] was 0.101 nM. It also gave a koff [7] of 9.6e-05 s⁻¹, a kon [7] of 950000 M⁻¹ s⁻¹ and a t1/2 [7] of 2 h.

B6: H1M2212N (antibody, V domains shown)
VH: EVQLLESGGGLVQPGGSLRLSCAASGFTFSSYAMSWVRQGPGKGLEWVSGISGSGGSTYNADSVKGRFTISRDNSKNTLYLQMNSLRAEDTAVYYCAKDSGTYWYYFDYWGQGILVTVSS
VL: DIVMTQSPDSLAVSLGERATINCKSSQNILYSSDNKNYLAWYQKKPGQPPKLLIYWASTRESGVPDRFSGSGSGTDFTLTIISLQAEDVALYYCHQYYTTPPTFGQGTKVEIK
notes: as for B3
For B6, the Kd [2] was 0.297 nM, the koff [2] was 0.000303 s⁻¹ and the kon [2] was 1.02e+06 M⁻¹ s⁻¹. It also gave a t1/2 [2] of 38 min, a Kd [3] of 0.294 nM and a koff [3] of 0.00026 s⁻¹. The kon [3] was 884000 M⁻¹ s⁻¹, the t1/2 [3] was 44 min and the Kd [4] was 0.0413 nM. The koff [4] was 6.17e-05 s⁻¹, the kon [4] was 1.49e+06 M⁻¹ s⁻¹ and the t1/2 [4] was 187 min. For the same binder, the Kd [5] was 0.197 nM, the koff [5] was 0.000158 s⁻¹ and the kon [5] was 800000 M⁻¹ s⁻¹. For the same binder, the t1/2 [5] was 73 min, the Kd [6] was 0.293 nM and the koff [6] was 0.000112 s⁻¹. For the same binder, the kon [6] was 384000 M⁻¹ s⁻¹, the t1/2 [6] was 103 min and the Kd [7] was 0.0128 nM. For the same binder, the koff [7] was 1.44e-05 s⁻¹, the kon [7] was 1.12e+06 M⁻¹ s⁻¹ and the t1/2 [7] was 13.3 h.

B7: H1M2207N (antibody, V domains shown)
VH: EVQLVESGGGLVQPGRSLRLSCAASGFTFNDYAMHWVRQAPGKGLEWVSGISWNSGNIGYADSVKGRFTISRDNAKNSLYLQMNSLRAEDTALYFCARDTRMATRPFDYWGQGTLVTVSS
VL: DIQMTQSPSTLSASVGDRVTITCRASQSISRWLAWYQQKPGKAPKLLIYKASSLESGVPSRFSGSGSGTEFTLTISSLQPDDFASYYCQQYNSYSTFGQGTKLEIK
notes: as for B3
B7 gave a Kd [2] of 10.8 nM, a koff [2] of 0.00144 s⁻¹ and a kon [2] of 133000 M⁻¹ s⁻¹. The t1/2 [2] was 8 min, the Kd [3] was 145 nM and the koff [3] was 0.00663 s⁻¹. The kon [3] was 45800 M⁻¹ s⁻¹, the t1/2 [3] was 2 min and the Kd [4] was 0.531 nM. The koff [4] was 0.000108 s⁻¹, the kon [4] was 203000 M⁻¹ s⁻¹ and the t1/2 [4] was 107 min. The Kd [5] was 16 nM, the koff [5] was 0.0009 s⁻¹ and the kon [5] was 56100 M⁻¹ s⁻¹. For the same binder, the t1/2 [5] was 13 min, the Kd [6] was 97.2 nM and the koff [6] was 0.00388 s⁻¹. For the same binder, the kon [6] was 39900 M⁻¹ s⁻¹, the t1/2 [6] was 3 min and the Kd [7] was 0.163 nM. It also gave a koff [7] of 2.6e-05 s⁻¹, a kon [7] of 159000 M⁻¹ s⁻¹ and a t1/2 [7] of 7.4 h.
